Results: patent US20230357429A1 (JANUX THERAPEUTICS, published 2023)
Read-outs that look alike come from different tables or passages of the source. Where no end group is shown, it is not given here.

T1: Peptide-10 (cysteine pairing not given here; also: biotinylated (site not given here))
T1 peptide: IDFCAIYQWPVCRS

T2: Peptide-29 (cysteine pairing not given here; also: biotinylated, site not given here)
T2 peptide: SYLVCVKNVYCWTA

T3: Peptide-7 (cysteine pairing not given here; also: biotinylated, site not given here)
T3 peptide: EDFCKLYNWPICYQ

T4: Peptide-14 (cysteine pairing not given here; also: biotinylated (site not given here))
T4 peptide: LDFCKIYDWPICHL

T5: Peptide-1 (cysteine pairing not given here; also: biotinylated (site not given here))
T5 peptide: IDFCAMYQWPICDT

T6: Peptide-3 (cysteine pairing not given here; also: biotinylated, site not given here)
T6 peptide: IDFCMLYNWPICAG

T7: Peptide-4 (cysteine pairing not given here; also: biotinylated, site not given here)
T7 peptide: VDFCKIYAWPICGS

T8: Peptide-18 (cysteine pairing not given here; also: biotinylated (site not given here))
T8 peptide: MDFCQIYDWPICRL

T9: Peptide-26 (cysteine pairing not given here; also: biotinylated, site not given here)
T9 peptide: DNLICVKNLWCWIA

T10: Peptide-5 (cysteine pairing not given here; also: biotinylated, site not given here)
T10 peptide: VDFCKLYNWPVCQT

T11: Peptide-17 (cysteine pairing not given here; also: biotinylated (site not given here))
T11 peptide: IDFCLLYDWPICGR

T12: Peptide-20 (cysteine pairing not given here; also: biotinylated (site not given here))
T12 peptide: VDFCSFYRWPICET

T13: Peptide-25 (cysteine pairing not given here; also: biotinylated (site not given here))
T13 peptide: VDFCKIYSWPVCHQ

T14: Peptide-12 (cysteine pairing not given here; also: biotinylated (site not given here))
T14 peptide: PDFCAVYRWPICYQ

T15: Peptide-8 (cysteine pairing not given here; also: biotinylated, site not given here)
T15 peptide: VDFCGLYHWPICYQ

T16: Peptide-31 (cysteine pairing not given here; also: biotinylated, site not given here)
T16 peptide: YSLVCVKNLYCWNL

T17: Peptide-13 (cysteine pairing not given here; also: biotinylated (site not given here))
T17 peptide: VDFCELYRWPICNS

T18: Peptide-6 (cysteine pairing not given here; also: biotinylated, site not given here)
T18 peptide: IDFCLIYNWPVCDT

T19: Peptide-27 (cysteine pairing not given here; also: biotinylated, site not given here)
T19 peptide: FSLVCVRNLYCWNV

T20: Peptide-2 (cysteine pairing not given here; also: biotinylated (site not given here))
T20 peptide: IDFCAVYKWPVCQV

T21: Peptide-60 (cysteine pairing not given here; also: biotinylated, site not given here)
T21 peptide: VDFCNLYHWPICAI

T22: Peptide-46 (cysteine pairing not given here; also: biotinylated, site not given here)
T22 peptide: VEFCAIYSWPICKI

T23: Peptide-61 (cysteine pairing not given here; also: biotinylated, site not given here)
T23 peptide: VDFCALYHWPVCGL

T24: Peptide-57 (cysteine pairing not given here; also: biotinylated, site not given here)
T24 peptide: IDFCYRYGWPVCQT

T25: Peptide-51 (cysteine pairing not given here; also: biotinylated, site not given here)
T25 peptide: VDFCGLYHWPICYQV

T26: Peptide-53 (cysteine pairing not given here; also: biotinylated, site not given here)
T26 peptide: IDFCRVYDWPVCSL

T27: Peptide-52 (cysteine pairing not given here; also: biotinylated, site not given here)
T27 peptide: VDFCYQYAWPVCSTGD

T28: Human TROP2 ECD (31-274 AA), biotinylated (human, UniProt P09758 31-274, biotinylated (site not stated))
T28 construct: captured on neutravidin plates; also called TROP2-biotin; Trop2-biotin
T28 sequence: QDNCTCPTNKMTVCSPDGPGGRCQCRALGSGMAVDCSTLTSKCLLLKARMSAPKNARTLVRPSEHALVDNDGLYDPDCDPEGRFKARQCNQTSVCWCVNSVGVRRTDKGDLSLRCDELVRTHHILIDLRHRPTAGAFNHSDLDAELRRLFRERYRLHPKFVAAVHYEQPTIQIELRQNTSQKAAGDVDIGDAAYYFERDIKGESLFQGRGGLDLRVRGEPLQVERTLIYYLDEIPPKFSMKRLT

T29: Peptide-28 (cysteine pairing not given here; also: biotinylated, site not given here)
T29 peptide: NYLLCVKNLYCWIV


Columns and labels:
[1] = molecular target: T1, Peptide-10; test: ELISA, Fab on captured biotin-peptide
Procedure: (§1) Binding was measured in a standard ELISA format. […] Bound TBDs were detected using a standard horse radish peroxidase conjugate secondary antibody. The ELISA signal was plotted versus the log-scale concentration of TBD. The concentrations of TBD required to observe half maximal binding signal (EC₅₀s) were calculated using Graphpad Prism software.

[2] = molecular target: T2, Peptide-29; test: ELISA, Fab on captured biotin-peptide
Procedure: as §1

[3] = molecular target: T3, Peptide-7; test: ELISA, Fab on captured biotin-peptide
Procedure: as §1

[4] = molecular target: T4, Peptide-14; test: ELISA, Fab on captured biotin-peptide
Procedure: as §1

[5] = molecular target: T5, Peptide-1; test: ELISA, Fab on captured biotin-peptide
Procedure: as §1

[6] = molecular target: T6, Peptide-3; test: ELISA, Fab on captured biotin-peptide
Procedure: as §1

[7] = molecular target: T7, Peptide-4; test: ELISA, Fab on captured biotin-peptide
Procedure: as §1

[8] = molecular target: T8, Peptide-18; test: ELISA, Fab on captured biotin-peptide
Procedure: as §1

[9] = molecular target: T9, Peptide-26; test: ELISA, Fab on captured biotin-peptide
Procedure: as §1

[10] = molecular target: T10, Peptide-5; test: ELISA, Fab on captured biotin-peptide
Procedure: as §1

[11] = molecular target: T11, Peptide-17; test: ELISA, Fab on captured biotin-peptide
Procedure: as §1

[12] = molecular target: T12, Peptide-20; test: ELISA, Fab on captured biotin-peptide
Procedure: as §1

[13] = molecular target: T13, Peptide-25; test: ELISA, Fab on captured biotin-peptide
Procedure: as §1

[14] = molecular target: T14, Peptide-12; test: ELISA, Fab on captured biotin-peptide
Procedure: as §1

[15] = molecular target: T15, Peptide-8; test: ELISA, Fab on captured biotin-peptide
Procedure: as §1

[16] = molecular target: T16, Peptide-31; test: ELISA, Fab on captured biotin-peptide
Procedure: as §1

[17] = molecular target: T17, Peptide-13; test: ELISA, Fab on captured biotin-peptide
Procedure: as §1

[18] = molecular target: T18, Peptide-6; test: ELISA, Fab on captured biotin-peptide
Procedure: as §1

[19] = molecular target: T19, Peptide-27; test: ELISA, Fab on captured biotin-peptide
Procedure: as §1

[20] = molecular target: T20, Peptide-2; test: ELISA, Fab on captured biotin-peptide
Procedure: as §1

[21] = molecular target: T21, Peptide-60; test: ELISA, Fab on captured biotin-peptide
Procedure: as §1

[22] = molecular target: T22, Peptide-46; test: ELISA, Fab on captured biotin-peptide
Procedure: as §1

[23] = molecular target: T23, Peptide-61; test: ELISA, Fab on captured biotin-peptide
Procedure: as §1

[24] = molecular target: T24, Peptide-57; test: ELISA, Fab on captured biotin-peptide
Procedure: as §1

[25] = molecular target: T25, Peptide-51; test: ELISA, Fab on captured biotin-peptide
Procedure: as §1

[26] = molecular target: T26, Peptide-53; test: ELISA, Fab on captured biotin-peptide
Procedure: as §1

[27] = molecular target: T27, Peptide-52; test: ELISA, Fab on captured biotin-peptide
Procedure: as §1

[28] = molecular target: T28, Human TROP2 ECD (31-274 AA), …; test: ELISA, Fab on captured biotin-TROP2
[29] = molecular target: T29, Peptide-28; test: ELISA, Fab on captured biotin-peptide
Procedure: as §1

[30] = molecular target: T28, Human TROP2 ECD (31-274 AA), …; test: ELISA, Fab on captured biotin-TROP2; remark: listed apart in the source

Binder | EC50 [1] | EC50 [2] | EC50 [3] | EC50 [4] | EC50 [5] | EC50 [6] | EC50 [7] | EC50 [8] | EC50 [9] | EC50 [10] | EC50 [11] | EC50 [12] | EC50 [13] | EC50 [14] | EC50 [15] | EC50 [17] | EC50 [18] | EC50 [19] | EC50 [20] | EC50 [28] | also measured
TBD-1 wt (Fab, V domains shown, Fab; the heavy chain entry is VH-CH1; also called wild-type anti-TROP2 Fab (hRS7); TROP2 Fab) VH: QVQLQQSGSELKKPGASVKVSCKASGYTFTNYGMNWVKQAPGQGLKWMGWINTYTGEPTYTDDFKGRFAFSLDTSVSTAYLQISSLKADDTAVYFCARGGFGSSYWYFDVWGQGSLVTVSS VL: DIQLTQSPSSLSASVGDRVSITCKASQDVSIAVAWYQQKPGKAPKLLIYSASYRYTGVPDRFSGSGSGTDFTLTISSLQPEDFAVYYCQQHYITPLTFGAGTKVEIKR | 62.6 nM | 6.7 nM | 37.5 nM | 379 nM | 22.5 nM | 12.8 nM | 9.2 nM | 474 nM | 85 nM | 16.5 nM | 132 nM | 600 nM | 48.2 nM | 35.9 nM | 40.2 nM | 157 nM | 28.5 nM | 23.9 nM | 13.7 nM |  | EC50 [16]: 42.1 nM; EC50 [21]: 47.8 nM; EC50 [22]: 668 nM; EC50 [23]: 191 nM; EC50 [24]: 25.7 nM; EC50 [25]: 45.1 nM; EC50 [26]: 45.3 nM; EC50 [27]: 127 nM
TBD-21 (HC F108A) (Fab, V domains shown, Fab; also called HC F108A mutant) VH: QVQLQQSGSELKKPGASVKVSCKASGYTFTNYGMNWVKQAPGQGLKWMGWINTYTGEPTYTDDFKGRFAFSLDTSVSTAYLQISSLKADDTAVYFCARGGFGSSYWYADVWGQGSLVTVSS VL: DIQLTQSPSSLSASVGDRVSITCKASQDVSIAVAWYQQKPGKAPKLLIYSASYRYTGVPDRFSGSGSGTDFTLTISSLQPEDFAVYYCQQHYITPLTFGAGTKVEIKR | 15.2 nM | 23.4 nM | 27.4 nM | 53.3 nM | 13.5 nM | 12.3 nM | 12.7 nM | 38 nM | 390 nM | 15.6 nM | 16.4 nM | 89 nM | 48.4 nM | 10.1 nM | 13 nM | 22.6 nM | 24.9 nM | 149 nM | 12.9 nM | 4.2 nM | EC50 [29]: 146 nM
TBD-11 (HC R98A) (Fab, V domains shown, Fab; also called HC R98A mutant) VH: QVQLQQSGSELKKPGASVKVSCKASGYTFTNYGMNWVKQAPGQGLKWMGWINTYTGEPTYTDDFKGRFAFSLDTSVSTAYLQISSLKADDTAVYFCAAGGFGSSYWYFDVWGQGSLVTVSS VL: DIQLTQSPSSLSASVGDRVSITCKASQDVSIAVAWYQQKPGKAPKLLIYSASYRYTGVPDRFSGSGSGTDFTLTISSLQPEDFAVYYCQQHYITPLTFGAGTKVEIKR | 272 nM |  | 343 nM | 332 nM | 292 nM | 246 nM | 179 nM | 298 nM |  | 232 nM | 191 nM |  | > 1000 nM | 157 nM | 156 nM | 388 nM | 363 nM |  | 204 nM | 3.4 nM | EC50 [30]: 3.4 nM; EC50 [21]: 60.4 nM; EC50 [23]: 272 nM; EC50 [24]: 85.6 nM; EC50 [25]: 244 nM; EC50 [26]: 32.5 nM
TBD-6 (LC I93A) (Fab, V domains shown, Fab; also called LC I93A mutant) VH: QVQLQQSGSELKKPGASVKVSCKASGYTFTNYGMNWVKQAPGQGLKWMGWINTYTGEPTYTDDFKGRFAFSLDTSVSTAYLQISSLKADDTAVYFCARGGFGSSYWYFDVWGQGSLVTVSS VL: DIQLTQSPSSLSASVGDRVSITCKASQDVSIAVAWYQQKPGKAPKLLIYSASYRYTGVPDRFSGSGSGTDFTLTISSLQPEDFAVYYCQQHYATPLTFGAGTKVEIKR | 8.5 nM | 43.8 nM | 59.6 nM | 145 nM | 14.8 nM | 11.4 nM | 15.3 nM | 83.2 nM |  | 9.9 nM | 16.5 nM | 140 nM | 38.3 nM | 18.2 nM | 18.8 nM | 21.4 nM | 15 nM | 178 nM | 9.9 nM | 0.3 nM | EC50 [30]: 0.3 nM; EC50 [29]: 681 nM; EC50 [16]: 791 nM; EC50 [21]: 7.7 nM; EC50 [22]: 102 nM; EC50 [23]: 11.8 nM; EC50 [24]: 9.2 nM; EC50 [25]: 13.5 nM; EC50 [26]: 4.4 nM; EC50 [27]: 39.3 nM
TBD-17 (HC S104A) (Fab, V domains shown, Fab; also called HC S104A mutant) VH: QVQLQQSGSELKKPGASVKVSCKASGYTFTNYGMNWVKQAPGQGLKWMGWINTYTGEPTYTDDFKGRFAFSLDTSVSTAYLQISSLKADDTAVYFCARGGFGSAYWYFDVWGQGSLVTVSS VL: DIQLTQSPSSLSASVGDRVSITCKASQDVSIAVAWYQQKPGKAPKLLIYSASYRYTGVPDRFSGSGSGTDFTLTISSLQPEDFAVYYCQQHYITPLTFGAGTKVEIKR | 6.5 nM | 24.8 nM | 15.6 nM | 71 nM | 7.3 nM | 6.4 nM | 6.5 nM | 36.7 nM | 379 nM | 5.4 nM | 8.5 nM | 115 nM | 38.8 nM | 6.8 nM | 8.2 nM | 10 nM | 10.1 nM | 107 nM | 5.7 nM | 0.3 nM | EC50 [29]: 247 nM; EC50 [16]: 164 nM
